This note sets out measurements from the supplement of paper PMC5998384.

For data set [1], the system named is HeLa Kyoto. As to the kind of experiment: solubility in G1/S (NP-40 vs SDS abundance) (log2 ratio); higher = more soluble. The following applies: cell cycle stage: G1/S.
The test system of data set [2] is HeLa Kyoto. As to the kind of experiment: solubility change mitosis vs G1/S (difference of NP-40 vs SDS log2 ratios) (log2 ratio difference); higher = more soluble in mitosis.
Data set [3] concerns HeLa Kyoto. As to the kind of experiment: melting temperature (median over replicates), in situ; higher = more thermally stable.
Data set [4] concerns HeLa Kyoto. As to the kind of experiment: thermal stability score vs G1/S (z-score of summed log2 fold changes over temperatures); higher = more thermally stable than in G1/S.
[5] abbreviates: cell cycle stage: early G1 (4.5 h after nocodazole release).
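For melting temperature (median over replicates), in situ in this document: HeLa Kyoto cells synchronized by double thymidine or nocodazole block, proteins quantified by TMT10plex mass spectrometry, three independent biological replicates.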
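For solubility change mitosis vs G1/S (difference of NP-40 vs SDS log2 ratios) in this document: synchronized HeLa Kyoto cells (double thymidine block for G1/S, nocodazole release for mitosis), protein amounts in NP-40 versus SDS lysates quantified by mass spectrometry, three biological replicates.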
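For solubility in G1/S (NP-40 vs SDS abundance) in this document: HeLa Kyoto cells arrested at G1/S by double thymidine block, proteins quantified by TMT10plex mass spectrometry in mild NP-40 versus SDS extracts, three biological replicates.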
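For thermal stability score vs G1/S (z-score of summed log2 fold changes over temperatures) in this document: synchronized HeLa Kyoto cells, proteins quantified by TMT10plex mass spectrometry, three biological replicates, mitosis taken 0.5 h after nocodazole release, G1/S directly after double thymidine block.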

Take “MLRAGWLRGAAALALLLAARVVAAFEPITVGLAIGAASAITGYLSYNDIYCRFAECCREERPLNASALKLDLEEKLFGQHLATEVIFKALTGFRNNKNPKKPLTLSLHGWAGTGKNFVSQIVAENLHPKGLKSNFVHLFVSTLHFPHEQKIKLYQDQLQKWIRGNVSACANSVFIFDEMDKLHPGIIDAIKPFLDYYEQVDGVSYRKAIFIFLSNAGGDLITKTALDFWRAGRKREDIQLKDLEPVLSVGVFNNKHSGLWHSGLIDKNLIDYFIPFLPLEYRHVKMCVRAEMRARGSAIDEDIVTRVAEEMTFFPRDEKIYSDKGCKTVQSRLDFH [TOR1B]”: in data set [1], the “solubility in G1/S (log2)” value amounted to 0.349. The “solubility change mitosis (log2)” value in data set [2] is -0.143. In addition, the values for the melting temperature in data set [3] (cell cycle stage: G1/S) and in data set [3] (cell cycle stage: mitosis) were 53.7 °C and 53.9 °C, respectively. Further, the thermal stability score came out at 2.27 in data set [4] (setting [5]) and 5.78 in data set [4] (cell cycle stage: mitosis).

Regarding “MLRMRTAGWARGWCLGCCLLLPLSLSLAAAKQLLRYRLAEEGPADVRIGNVASDLGIVTGSGEVTFSLESGSEYLKIDNLTGELSTSERRIDREKLPQCQMIFDENECFLDFEVSVIGPSQSWVDLFEGQVIVLDINDNTPTFPSPVLTLTVEENRPVGTLYLLPTATDRDFGRNGIERYELLQEPGGGGSGGESRRAGAADSAPYPGGGGNGASGGGSGGSKRRLDASEGGGGTNPGGRSSVFELQVADTPDGEKQPQLIVKGALDREQRDSYELTLRVRDGGDPPRSSQAILRVLITDVNDNSPRFEKSVYEADLAENSAPGTPILQLRAADLDVGVNGQIEYVFGAATESVRRLLRLDETSGWLSVLHRIDREEVNQLRFTVMARDRGQPPKTDKATVVLNIKDENDNVPSIEIRKIGRIPLKDGVANVAEDVLVDTPIALVQVSDRDQGENGVVTCTVVGDVPFQLKPASDTEGDQNKKKYFLHTSTPLDYEATREFNVVIVAVDSGSPSLSSNNSLIVKVGDTNDNPPMFGQSVVEVYFPENNIPGERVATVLATDADSGKNAEIAYSLDSSVMGIFAIDPDSGDILVNTVLDREQTDRYEFKVNAKDKGIPVLQGSTTVIVQVADKNDNDPKFMQDVFTFYVKENLQPNSPVGMVTVMDADKGRNAEMSLYIEENNNIFSIENDTGTIYSTMSFDREHQTTYTFRVKAVDGGDPPRSATATVSLFVMDENDNAPTVTLPKNISYTLLPPSSNVRTVVATVLATDSDDGINADLNYSIVGGNPFKLFEIDPTSGVVSLVGKLTQKHYGLHRLVVQVNDSGQPSQSTTTLVHVFVNESVSNATAIDSQIARSLHIPLTQDIAGDPSYEISKQRLSIVIGVVAGIMTVILIILIVVMARYCRSKNKNGYEAGKKDHEDFFTPQQHDKSKKPKKDKKNKKSKQPLYSSIVTVEASKPNGQRYDSVNEKLSDSPSMGRYRSVNGGPGSPDLARHYKSSSPLPTVQLHPQSPTAGKKHQAVQDLPPANTFVGAGDNISIGSDHCSEYSCQTNNKYSKQMRLHPYITVFG [PCDH7]”, the “solubility in G1/S (log2)” value in data set [1] came out at 0.215. Moreover, the “solubility change mitosis (log2)” value in data set [2] is -0.075. Besides, the melting temperature turned out to be 55.1 °C in data set [3] (cell cycle stage: G1/S) and 53.4 °C in data set [3] (cell cycle stage: mitosis). In addition, the thermal stability score in data set [4] (setting [5]) was -1.64; in data set [4] (cell cycle stage: mitosis) it was -1.07.

“MLRPAGLWRLCRRPWAARVPAENLGRREVTSGVSPRGSTSPRTLNIFDRDLKRKQKNWAARQPEPTKFDYLKEEVGSRIADRVYDIPRNFPLALDLGCGRGYIAQYLNKETIGKFFQADIAENALKNSSETEIPTVSVLADEEFLPFKENTFDLVVSSLSLHWVNDLPRALEQIHYILKPDGVFIGAMFGGDTLYELRCSLQLAETEREGGFSPHISPFTAVNDLGHLLGRAGFNTLTVDTDEIQVNYPGMFELMEDLQGMGESNCAWNRKALLHRDTMLAAAAVYREMYRNEDGSVPATYQIYYMIGWKYHESQARPAERGSATVSFGELGKINNLMPPGKKSQ [NDUFAF5]”: the “solubility in G1/S (log2)” value in data set [1] worked out at 0.329. Besides, the “solubility change mitosis (log2)” value in data set [2] is -0.0552. Besides, the melting temperature in data set [3] (cell cycle stage: G1/S) worked out at 53.5 °C; in data set [3] (cell cycle stage: mitosis), 53.4 °C. Moreover, the thermal stability score came out at 0.357 in data set [4] (setting [5]) and 0.191 in data set [4] (cell cycle stage: mitosis).

As for “MLRRGSQALRRFSTGRVYFKNKLKLALIGQSLFGQEVYSHLRKEGHRVVGVFTVPDKDGKADPLALAAEKDGTPVFKLPKWRVKGKTIKEVAEAYRSVGAELNVLPFCTQFIPMDIIDSPKHGSIIYHPSILPRHRGASAINWTLIMGDKKAGFSVFWADDGLDTGPILLQRSCDVEPNDTVDALYNRFLFPEGIKAMVEAVQLIADGKAPRIPQPEEGATYEGIQKKENAEISWDQSAEVLHNWIRGHDKVPGAWTEINGQMVTFYGSTLLNSSVPPGEPLEIKGAKKPGLVTKNGLVLFGNDGKALTVRNLQFEDGKMIPASQYFSTGETSVVELTAEEVKVAETIKVIWAGILSNVPIIEDSTDFFKSGASSMDVARLVEEIRQKCGGLQLQNEDVYMATKFEGFIQKVVRKLRGEDQEVELVVDYISKEVNEIMVKMPYQCFINGQFTDADDGKTYDTINPTDGSTICKVSYASLADVDKAVAAAKDAFENGEWGRMNARERGRLMYRLADLLEENQEELATIEALDSGAVYTLALKTHIGMSVQTFRYFAGWCDKIQGSTIPINQARPNRNLTFTKKEPLGVCAIIIPWNYPLMMLAWKSAACLAAGNTLVLKPAQVTPLTALKFAELSVKAGFPKGVINIIPGSGGIAGQRLSEHPDIRKLGFTGSTPIGKQIMKSCAVSNLKKVSLELGGKSPLIIFNDCELDKAVRMGMGAVFFNKGENCIAAGRLFVEESIHDEFVTRVVEEIKKMKIGDPLDRSTDHGPQNHKAHLEKLLQYCETGVKEGATLVYGGRQVQRPGFFMEPTVFTDVEDYMYLAKEESFGPIMVISKFQNGDIDGVLQRANSTEYGLASGVFTRDINKAMYVSEKLEAGTVFINTYNKTDVAAPFGGVKQSGFGKDLGEEALNEYLKTKTVTLEY [ALDH1L2]”, in data set [1], the “solubility in G1/S (log2)” value came to 0.0306. In addition, the “solubility change mitosis (log2)” value in data set [2] is -0.105. The figures for the melting temperature in data set [3] (cell cycle stage: G1/S) and in data set [3] (cell cycle stage: mitosis) were 51.6 °C and 51.2 °C, respectively. Also, the figures for the thermal stability score in data set [4] (setting [5]) and in data set [4] (cell cycle stage: mitosis) were -0.0085 and -0.149, respectively.
